Measured values reported in patent publication US20100184672A1 (published 2010).

What was measured:
[1] = molecular target: T1, glycocalicin (the proteolytic fragment of GPIb) (human, UniProt P07359 17-506); experiment: SPR, ligand perfused over glycocalicin-coated sensor, Langmuir one-to-one fit
T1 construct: domain: glycocalicin (the proteolytic fragment of GPIb); Purified from human platelets; coated on the SPR sensor
Description: (§1) The sensorgrams at different concentrations were obtained and normalized by subtracting background signals from the glycocalicin surface.

[2] = molecular target: T1, glycocalicin (the proteolytic fragment …); experiment: SPR, comparison of Kd with that of VWF A1 on glycocalicin
Description: as §1

Kd [1]: 308 nM
fold difference against the interaction of GPIb and VWF A1 [2]: ~10 fold
B1: Activated protein C (APC), human plasma-derived (enzyme)
chain 1: ANSFLEELRHSSLERECIEEICDFEEAKEIFQNVDDTLAFWSKHVDGDQCLVLPLEHPCASLCCGHGTCIDGIGSFSCDCRSGWEGRFCQREVSFLNCSLDNGGCTHYCLEEVGWRRCSCAPGYKLGDDLLQCHPAVKFPCGRPWKRMEKKRSHL
chain 2: LIDGKMTRRGDSPWQVVLLDSKKKLACGAVLIHPSWVLTAAHCMDESKKLLVRLGEYDLRRWEKWELDLDIKEVFVHPNYSKSTTDNDIALLHLAQPATLSQTIVPICLPDSGLAERELNQAGQETLVTGWGYHSSREKEAKRNRTFVLNFIKIPVVPHNECSEVMSNMVSENMLCAGILGDRQDACEGDSGGPMVASFHGTWFLVGLVSWGEGCGLLHNYGVYTKVSRYLDWIHGHIRDKEAPQKSWAP
notes: mature
